Results on 4 substances are retold here after article PMC3616908.

The assay has as its target Chk1 (UniProt P38147). Nature of the assay: biotinylated 35-mer peptide pull-down, anti-FLAG blot.

For the substance “Rad9 (from UniProt P14737) T143p peptide, λ phosphatase treated”, the “binding against the reference” value (reference: T143p peptide, untreated or λ phosphatase plus inhibitors, sites T143) is “weaker”.
In the case of “Rad9 (from UniProt P14737) T143p peptide”, under “reference: unphosphorylated peptide, sites T143”, the “binding against the reference” value is “stronger”.
As for “Rad9 (from UniProt P14737) T125pT143p peptide”, the “binding against the reference” value (reference: T125p peptide, sites T143) is reported as “stronger”; the “binding against the reference” value (reference: T143p peptide, sites T125) is reported as “weaker”; the “binding against the reference” value (reference: unphosphorylated peptide, sites T125,T143) is recorded as “stronger”.
On to “Rad9 (from UniProt P14737) T125p peptide”, for which the “binding against the reference” value (reference: unphosphorylated peptide, sites T125) is reported as “weaker”.
